This is an account of results in article PMC11928764.

The target of assay [1] is eSALO-WT (SALO, salivary anticomplement from Lutzomyia longipalpis, expressed by HEK293(T) cells) (Lutzomyia longipalpis) (UniProt Q5WPZ4). The experiment in a line: SPR; biotinylated eSALO-WT captured on streptavidin (97 RU); single-cycle kinetics, C1r proenzyme 25-400 nM, zC1r-12SP 6.25-100 nM; 25 °C, HBS-T; two-state kinetic model, apparent KD.
Assay [2] concerns the target eSALO-E58A (Lutzomyia longipalpis). The experiment in a line: SPR; biotinylated eSALO-WT or mutants captured on streptavidin (50-73 RU); single-cycle kinetics, C1r proenzyme 25-400 nM, zC1r-12SP 6.25-100 nM; 25 °C, HBS-T; two-state binding model, apparent KD; mean ± SD of three injections.
Assay [3] addresses eSALO-WT (SALO, salivary anticomplement from Lutzomyia longipalpis, expressed by HEK293(T) cells) (Lutzomyia longipalpis) (UniProt Q5WPZ4). Described as above.
The target in assay [4] is eSALO-Y51F (Lutzomyia longipalpis). The description is as above.
Assay [5] concerns the target eSALO-WT (SALO, salivary anticomplement from Lutzomyia longipalpis, expressed by HEK293(T) cells) (Lutzomyia longipalpis) (UniProt Q5WPZ4). The experiment in a line: SPR; eSALO-WT amine-coupled to a CMD200M chip (720 RU); analytes injected as two-fold series (15.6-1000 nM; 1.56-100 nM for C1 and C1r proenzyme); 25 °C, HBS-T (20 mM Hepes pH 7.4, 140 mM NaCl, 0.005% Tween-20); 1:1 model, apparent KD. Background: SPR reads the build-up and loss of mass on a sensor chip optically.

Assay [6] addresses T1, C1r proenzyme (zymogen of complement protease C1r) (human).
T1 sequence (P00736 18-705, looked up): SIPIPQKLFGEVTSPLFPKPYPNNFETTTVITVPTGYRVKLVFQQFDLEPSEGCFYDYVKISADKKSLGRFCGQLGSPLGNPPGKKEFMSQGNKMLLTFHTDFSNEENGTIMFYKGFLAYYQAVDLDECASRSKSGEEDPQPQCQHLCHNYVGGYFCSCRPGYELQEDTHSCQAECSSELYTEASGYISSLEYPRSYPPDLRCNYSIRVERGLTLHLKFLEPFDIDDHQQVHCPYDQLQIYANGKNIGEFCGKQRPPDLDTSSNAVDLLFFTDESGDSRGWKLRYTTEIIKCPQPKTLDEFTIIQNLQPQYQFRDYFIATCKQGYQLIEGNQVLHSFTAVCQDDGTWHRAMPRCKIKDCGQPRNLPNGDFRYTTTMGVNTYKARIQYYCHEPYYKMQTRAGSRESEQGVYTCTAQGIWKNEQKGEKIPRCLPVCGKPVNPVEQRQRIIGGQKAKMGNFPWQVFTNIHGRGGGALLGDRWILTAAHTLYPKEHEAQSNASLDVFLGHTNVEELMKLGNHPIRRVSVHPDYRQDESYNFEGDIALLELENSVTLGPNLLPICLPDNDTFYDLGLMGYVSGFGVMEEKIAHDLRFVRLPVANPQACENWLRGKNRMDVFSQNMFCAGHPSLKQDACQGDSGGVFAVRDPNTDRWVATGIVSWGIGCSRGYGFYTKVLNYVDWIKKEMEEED

The target is the same in assay [7]. This is another data set of the same source.

Like-named read-outs stand apart in the source and are kept apart here.

For the molecule “C1r proenzyme (zymogen of complement protease C1r)”, in assay [1], the Kd stood at 11.1 nM. Further, in assay [2], the Ka-1 (two-state model, first step, association) stood at 50000 M⁻¹ s⁻¹; the Ka-2 (two-state model, second step, forward) came out at 0.0023 s⁻¹; the Kd stood at 10.3 nM; the Kd-1 (two-state model, first step, dissociation) amounted to 0.0027 s⁻¹. Moreover, the Kd-2 (two-state model, second step, reverse) in assay [2] was 0.00037 s⁻¹. For the same molecule, in assay [3], the Ka-1 (two-state model, first step, association) came out at 30000 M⁻¹ s⁻¹; the Ka-2 (two-state model, second step, forward) was 0.003 s⁻¹; the Kd was found to be 5.6 nM; the Kd-1 (two-state model, first step, dissociation) came out at 0.0022 s⁻¹. In assay [3], the Kd-2 (two-state model, second step, reverse) came out at 0.00027 s⁻¹. Further, in assay [4], the Ka-1 (two-state model, first step, association) is 370000 M⁻¹ s⁻¹; the Ka-2 (two-state model, second step, forward) amounted to 0.0008 s⁻¹; the Kd turned out to be 41.9 nM; the Kd-1 (two-state model, first step, dissociation) amounted to 0.0183 s⁻¹. The Kd-2 (two-state model, second step, reverse) in assay [4] worked out at 0.00069 s⁻¹. The Kd in assay [5] amounted to 8.5 nM.

On to “Native C1 complex (first component of complement) (from UniProt P02745 23-245; P02746 28-253; P02747 29-245)”, for which, in assay [5], the Kd turned out to be 0.8 nM.

Regarding eSALO-E58A (natural protein), the IC50 of inhibition of classical-pathway hemolysis (antibody-sensitized sheep erythrocytes, 0.5% NHS) in assay [6] came to 1200 nM.

With eSALO-Y51F (natural protein), in assay [6], the IC50 of inhibition of classical-pathway hemolysis (antibody-sensitized sheep erythrocytes, 0.5% NHS) was 14500 nM.

Regarding “zC1r-12SP (fragment of human C1r with its two CCP repeats and serine protease domain, S654A, zymogen-like) (domain or fragment)”, in assay [1], the Kd was determined as 0.7 nM. For the same molecule, in assay [2], the Ka-1 (two-state model, first step, association) was 260000 M⁻¹ s⁻¹; the Ka-2 (two-state model, second step, forward) was 0.0018 s⁻¹; the Kd is 2.5 nM; the Kd-1 (two-state model, first step, dissociation) came to 0.0034 s⁻¹. In assay [2], the Kd-2 (two-state model, second step, reverse) was 0.00041 s⁻¹. In assay [3], the Ka-1 (two-state model, first step, association) is 370000 M⁻¹ s⁻¹; the Ka-2 (two-state model, second step, forward) turned out to be 0.0024 s⁻¹; the Kd was 1.1 nM; the Kd-1 (two-state model, first step, dissociation) was 0.0038 s⁻¹. Also, the Kd-2 (two-state model, second step, reverse) in assay [3] was 0.00028 s⁻¹. Further, in assay [4], the Ka-1 (two-state model, first step, association) stood at 280000 M⁻¹ s⁻¹; the Ka-2 (two-state model, second step, forward) came out at 0.0017 s⁻¹; the Kd came out at 9 nM; the Kd-1 (two-state model, first step, dissociation) was 0.008 s⁻¹. In addition, the Kd-2 (two-state model, second step, reverse) in assay [4] is 0.00077 s⁻¹.

B1: eSALO-WT (SALO, salivary anticomplement from Lutzomyia longipalpis, expressed by HEK293(T) cells) (natural protein)
chain: SEDCENIFHDNAYLLKLDCEAGRVDPVEYDDISDEEIYEITVDVGVSSEDQEKVAKIIRECIAQVSTQDCTKFSEIYDCYMKKKICNYYPENM
modifications: sulfotyrosine at Y51 (X51; extent of sulfation not known); biotin (NHS-PEG4-biotin) where surface-captured in SPR
Regarding B1, in assay [6], the IC50 of inhibition of classical-pathway hemolysis (antibody-sensitized sheep erythrocytes, 0.5% NHS) was found to be 84.9 nM.

B2: rSALO-WT (SALO expressed in Escherichia coli and refolded) (natural protein)
chain: SEDCENIFHDNAYLLKLDCEAGRVDPVEYDDISDEEIYEITVDVGVSSEDQEKVAKIIRECIAQVSTQDCTKFSEIYDCYMKKKICNYYPENM
On to B2, for which the IC50 of inhibition of classical-pathway hemolysis (antibody-sensitized sheep erythrocytes, 0.5% NHS) in assay [7] is 16000 nM.
